Measured values: patent US20240368267A1 (KODIAK SCIENCES, published 2024)
Each block holds one binder with its values, some of them ahead of it.

Columns and labels:
[1] = target: T1, human IL-6 (human, UniProt P05231 30-212); test: SPR (Biacore T200), antibody from cell supernatant captured on Protein A, IL-6 flowed over, 37 C
T1 construct: also called interleukin-6

[2] = target: T1, human IL-6; test: SPR (Biacore T200), purified antibody captured on Protein A, IL-6 flowed over, 37 C
Experimental: (§1) Antibodies were captured on a Protein A chip (GE) by injecting 1:20 cell supernatant dilutions at 10 μL/min for 60 seconds. […] The sensor chip was regenerated by a 60 seconds injection of 10 mM Glycine pH 1.7 at the flow rate of […]. […] For this setup, 1 μg/mL of purified antibody was injected over a Protein A chip at 10 μL/min for 25 seconds. […] The sensor chip was regenerated by a 60 seconds injection of 10 mM Glycine pH 1.7 at flow rate of 50 μL/min. Data analysis for supernatant and purified samples were performed using BIAevaluation software (GE). All sensorgrams were double reference subtracted and fit using a 1:1 Langmuir binding model.

[3] = target: T2, recombinant human IL-6 (human, UniProt P05231 30-212); test: Biacore, Fab lysate over IL-6 chip, 25 C
T2 construct: bought protein; also called interleukin-6
T2 sequence (P05231 30-212 limits assumed): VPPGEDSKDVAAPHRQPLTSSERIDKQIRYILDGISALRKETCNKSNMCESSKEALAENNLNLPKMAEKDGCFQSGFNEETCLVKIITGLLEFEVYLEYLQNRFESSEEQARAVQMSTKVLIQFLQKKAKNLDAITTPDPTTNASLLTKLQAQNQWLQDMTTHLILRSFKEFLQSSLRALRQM
Experimental: Fab libraries were constructed containing random single point mutations for all 71 CDR positions, excluding substitutions for Cys, Met and Asn due to the chemical liabilities associated with these amino acids. Small-scale expression in 96 well plates format was utilized for screening the Fab libraries. E. coli colonies (TG1 cells, Zymo Research) containing randomized single point mutations were picked into 96 well plates (1.5 mL) and grown overnight at 30° C. in LB Amp+2% glucose. A separate 96 well plate was created on the following day by removing 100 μL of culture and adding 100 μL of 30% glycerol, then stored at −80° C. The remaining culture was spun down for 20 min and later resuspended in 1.5 mL of LB Amp containing 1 mM IPTG for induction of protein expression at 30° C. After 5 hours, cells were spun down, resuspended in 500 μL of HBS-EP+ buffer and lysed by one freeze/thaw cycle. Lysates were centrifuged for 30 minutes and vacuum filtered (200 μL) into round bottom 96 well plates for Biacore analysis.
Three ranges of antigen density (100-150 RU, 300-400 RU, 400-600 RU) were obtained by using variable flow times for each chip channel, later blocked with ethanolamine. Supernatants of the 96-well filtered culture lysates were injected at […] for 120 seconds. Fitting of dissociation curves (300 seconds) to single exponential decay curve was used for the determination of dissociation rates (koff). Chip surfaces were regenerated with 10 mM Glycine pH 1.7 solution injected at 50 μL/min during 60 seconds after every cycle of sample binding and dissociation.

[4] = target: T2, recombinant human IL-6; test: Biacore, antibody captured on Protein A, IL-6 as analyte
Experimental: as §1

T1 sequence (P05231 30-212 limits assumed): as above

Kd [1]: 0.203 nM
koff [1]: 0.000408 s⁻¹
kon [1]: 2.01e+06 M⁻¹ s⁻¹
Kd [2]: 0.193 nM
koff [2]: 0.000251 s⁻¹
kon [2]: 1.3e+06 M⁻¹ s⁻¹
B4: anti-IL-6 antibody, heavy chain T63Q, G66D / light chain WT (antibody, human IgG1, V domains shown)
VH: EVQLVESGGGLVQPGGSLRLSCAASGFTFSPFAMSWVRQAPGKGLEWVAKISPGGSWTYYSDQVTDRFTFSLDTSKSTAYLQMNSLRAEDTAVYYCARQLWGYYALDIWGQGTLVTVSS
VL: DIQLTQSPSSLSASVGDRVTITCSASISVSYMYWYQQKPGKAPKLLIYDMSNLASGVPSRFSGSGSGTDFTLTISSLQPEDFATYYCMQWSGYPYTFGQGTKVEIK
notes: Derived as m2; Engineered human IgG1

koff [3]: 0.00529 s⁻¹
B5: anti-IL-6 Fab, light chain A54Y (Fab, V domains shown)
VH: EVQLVESGGGLVQPGGSLRLSCAASGFTFSPFAMSWVRQAPGKGLEWVAKISPGGSWTYYSDTVTGRFTFSLDTSKSTAYLQMNSLRAEDTAVYYCARQLWGYYALDIWGQGTLVTVSS
VL: DIQLTQSPSSLSASVGDRVTITCSASISVSYMYWYQQKPGKAPKLLIYDMSNLYSGVPSRFSGSGSGTDFTLTISSLQPEDFATYYCMQWSGYPYTFGQGTKVEIK
notes: built as m22 plus the named change

koff [3]: 0.005 s⁻¹
B7: anti-IL-6 Fab, light chain S55I (Fab, V domains shown)
VH: EVQLVESGGGLVQPGGSLRLSCAASGFTFSPFAMSWVRQAPGKGLEWVAKISPGGSWTYYSDTVTGRFTFSLDTSKSTAYLQMNSLRAEDTAVYYCARQLWGYYALDIWGQGTLVTVSS
VL: DIQLTQSPSSLSASVGDRVTITCSASISVSYMYWYQQKPGKAPKLLIYDMSNLAIGVPSRFSGSGSGTDFTLTISSLQPEDFATYYCMQWSGYPYTFGQGTKVEIK
notes: as for B5

The next lines start with the binder.

B1: anti-IL-6 antibody, heavy chain T65Q, G66D / light chain WT (antibody, human IgG1, V domains shown)
VH: EVQLVESGGGLVQPGGSLRLSCAASGFTFSPFAMSWVRQAPGKGLEWVAKISPGGSWTYYSDTVQDRFTFSLDTSKSTAYLQMNSLRAEDTAVYYCARQLWGYYALDIWGQGTLVTVSS
VL: DIQLTQSPSSLSASVGDRVTITCSASISVSYMYWYQQKPGKAPKLLIYDMSNLASGVPSRFSGSGSGTDFTLTISSLQPEDFATYYCMQWSGYPYTFGQGTKVEIK
notes: as for B4
Kd [1]: 0.158 nM
koff [1]: 0.000517 s⁻¹
kon [1]: 3.28e+06 M⁻¹ s⁻¹
Kd [2]: 0.148 nM
koff [2]: 0.000262 s⁻¹
kon [2]: 1.77e+06 M⁻¹ s⁻¹

B2: anti-IL-6 Fab, heavy chain A105Q (Fab, V domains shown)
VH: EVQLVESGGGLVQPGGSLRLSCAASGFTFSPFAMSWVRQAPGKGLEWVAKISPGGSWTYYSDTVTGRFTFSLDTSKSTAYLQMNSLRAEDTAVYYCARQLWGYYQLDIWGQGTLVTVSS
VL: DIQLTQSPSSLSASVGDRVTITCSASISVSYMYWYQQKPGKAPKLLIYDMSNLASGVPSRFSGSGSGTDFTLTISSLQPEDFATYYCMQWSGYPYTFGQGTKVEIK
notes: as for B5
koff [3]: 0.00378 s⁻¹

B3: anti-IL-6 antibody, heavy chain variant I (M34I/G66D/I108V), light chain variant III (M32L/M50D/N52S/M88Q) (antibody, human IgG1, V domains shown)
VH: EVQLVESGGGLVQPGGSLRLSCAASGFTFSPFAISWVRQAPGKGLEWVAKISPGGSWTYYSDTVTDRFTFSLDTSKSTAYLQMNSLRAEDTAVYYCARQLWGYYALDVWGQGTLVTVSS
VL: DIQLTQSPSSLSASVGDRVTITCSASISVSYLYWYQQKPGKAPKLLIYDDSSLASGVPSRFSGSGSGTDFTLTISSLQPEDFATYYCQQWSGYPYTFGQGTKVEIK
notes: engineered human IgG1; also called I/III
binding result [4]: binds

B6: anti-IL-6 Fab, heavy chain L100Q (Fab, V domains shown)
VH: EVQLVESGGGLVQPGGSLRLSCAASGFTFSPFAMSWVRQAPGKGLEWVAKISPGGSWTYYSDTVTGRFTFSLDTSKSTAYLQMNSLRAEDTAVYYCARQQWGYYALDIWGQGTLVTVSS
VL: DIQLTQSPSSLSASVGDRVTITCSASISVSYMYWYQQKPGKAPKLLIYDMSNLASGVPSRFSGSGSGTDFTLTISSLQPEDFATYYCMQWSGYPYTFGQGTKVEIK
notes: as for B5
koff [3]: 0.00245 s⁻¹

B8: anti-IL-6 Fab, heavy chain Y103D (Fab, V domains shown)
VH: EVQLVESGGGLVQPGGSLRLSCAASGFTFSPFAMSWVRQAPGKGLEWVAKISPGGSWTYYSDTVTGRFTFSLDTSKSTAYLQMNSLRAEDTAVYYCARQLWGDYALDIWGQGTLVTVSS
VL: DIQLTQSPSSLSASVGDRVTITCSASISVSYMYWYQQKPGKAPKLLIYDMSNLASGVPSRFSGSGSGTDFTLTISSLQPEDFATYYCMQWSGYPYTFGQGTKVEIK
notes: as for B5
koff [3]: 0.00503 s⁻¹

B9: anti-IL-6 Fab, light chain S55T (Fab, V domains shown)
VH: EVQLVESGGGLVQPGGSLRLSCAASGFTFSPFAMSWVRQAPGKGLEWVAKISPGGSWTYYSDTVTGRFTFSLDTSKSTAYLQMNSLRAEDTAVYYCARQLWGYYALDIWGQGTLVTVSS
VL: DIQLTQSPSSLSASVGDRVTITCSASISVSYMYWYQQKPGKAPKLLIYDMSNLATGVPSRFSGSGSGTDFTLTISSLQPEDFATYYCMQWSGYPYTFGQGTKVEIK
notes: as for B5
koff [3]: 0.0052 s⁻¹
